Substitutions are numbered along the chain they refer to. Names and notes keep the numbering of the source.
B1: Ob2843; galactarate dehydratase GalrD-II (Oceanobacillus iheyensis HTE831) (protein)
chain: MKITDLELHAVGIPRHTGFVNKHVIVKIHTDEGLTGIGEMSDFSHLPLYSVDLHDLKQGLLSILLGQNPFDLMKINKELTDNFPETMYYYEKGSFIRNGIDNALHDLCAKYLDISVSDFLGGRVKEKIKVCYPIFRHRFSEEVESNLDVVRQKLEQGFDVFRLYVGKNLDADEEFLSRVKEEFGSRVRIKSYDFSHLLNWKDAHRAIKRLTKYDLGLEMIESPAPRNDFDGLYQLRLKTDYPISEHVWSFKQQQEMIKKDAIDIFNISPVFIGGLTSAKKAAYAAEVASKDVVLGTTQELSVGTAAMAHLGCSLTNINHTSDPTGPELYVGDVVKNRVTYKDGYLYAPDRSVKGLGIELDESLLAKYQVPDLSWDNVTVHQLQDRTADTKS
B2: Ob2843; galactarate dehydratase GalrD-II (Oceanobacillus iheyensis HTE831; Y90F) (protein)
chain: B1 chain with Y90F

Substrate: O=C(O)[C@@H](O)[C@H](O)[C@H](O)[C@@H](O)C(=O)O
Assay: purified protein
Format: biochemical, Oceanobacillus iheyensis
Settings: 50 mM Hepes pH 8.0, 5 mM MgCl2

| Protein | Km [µM] | kcat [s⁻¹] | kcat/Km [M⁻¹ s⁻¹] |
| --- | --- | --- | --- |
| B1 | 620 ± 380 | 6.8 ± 1.2 | 11000 |
| B2 | 2000 ± 480 | 0.0061 ± 0.006 | 3.1 |

From publication PMC2787699
